The values that follow come from patent EP3583122A1 (dated 2019).

Common to all, as to experiment: cell-based or functional assay
Experiment [1] concerns the target T1, RESTV GP on rVSV particles (Reston virus (RESTV), UniProt Q66799 34-677).
T1 sequence: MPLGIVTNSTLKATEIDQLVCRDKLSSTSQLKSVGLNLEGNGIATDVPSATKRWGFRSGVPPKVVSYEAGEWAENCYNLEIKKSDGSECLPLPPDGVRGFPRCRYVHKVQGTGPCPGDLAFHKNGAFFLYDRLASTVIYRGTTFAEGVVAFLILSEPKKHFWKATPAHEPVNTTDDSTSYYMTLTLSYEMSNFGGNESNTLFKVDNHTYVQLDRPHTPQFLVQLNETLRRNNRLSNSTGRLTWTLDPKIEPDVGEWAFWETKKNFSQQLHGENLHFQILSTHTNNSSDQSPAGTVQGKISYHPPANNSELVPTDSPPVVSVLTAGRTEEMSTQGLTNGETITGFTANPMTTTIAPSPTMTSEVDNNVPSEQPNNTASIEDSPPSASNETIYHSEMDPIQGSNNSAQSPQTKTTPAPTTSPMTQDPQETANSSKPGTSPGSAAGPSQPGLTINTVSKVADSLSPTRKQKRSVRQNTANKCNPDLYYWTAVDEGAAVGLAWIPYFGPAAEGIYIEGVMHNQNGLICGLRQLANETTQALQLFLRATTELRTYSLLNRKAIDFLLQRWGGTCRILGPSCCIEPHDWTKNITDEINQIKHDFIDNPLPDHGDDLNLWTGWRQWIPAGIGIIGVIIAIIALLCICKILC

Experiment [2] concerns the target BDBV GP on rVSV particles (Bundibugyo virus (BDBV)).
Experiment [3] concerns the target T2, EBOV GP on rVSV particles (Ebola virus (EBOV), UniProt Q05320 33-676).
T2 sequence: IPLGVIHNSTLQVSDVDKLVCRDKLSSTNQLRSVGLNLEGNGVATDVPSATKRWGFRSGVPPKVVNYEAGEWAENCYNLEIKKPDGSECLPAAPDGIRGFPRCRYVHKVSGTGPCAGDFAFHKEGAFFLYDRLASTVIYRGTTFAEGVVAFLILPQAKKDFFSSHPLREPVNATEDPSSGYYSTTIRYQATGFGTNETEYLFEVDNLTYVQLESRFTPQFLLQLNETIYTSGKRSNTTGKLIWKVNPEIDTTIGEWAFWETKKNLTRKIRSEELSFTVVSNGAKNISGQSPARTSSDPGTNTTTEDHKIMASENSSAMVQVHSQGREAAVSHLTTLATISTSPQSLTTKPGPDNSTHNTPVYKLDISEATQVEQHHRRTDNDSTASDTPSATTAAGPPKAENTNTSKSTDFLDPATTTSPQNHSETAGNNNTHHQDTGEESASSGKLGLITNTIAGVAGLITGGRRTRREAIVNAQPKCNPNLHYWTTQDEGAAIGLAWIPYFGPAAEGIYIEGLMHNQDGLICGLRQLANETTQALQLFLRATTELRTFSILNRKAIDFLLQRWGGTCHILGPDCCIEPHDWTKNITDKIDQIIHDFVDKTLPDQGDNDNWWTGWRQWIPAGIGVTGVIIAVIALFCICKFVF

Experiment [4] addresses T3, TAFV GP on VSV pseudotype particles (Tai Forest virus (TAFV), UniProt Q66810 33-676).
T3 sequence: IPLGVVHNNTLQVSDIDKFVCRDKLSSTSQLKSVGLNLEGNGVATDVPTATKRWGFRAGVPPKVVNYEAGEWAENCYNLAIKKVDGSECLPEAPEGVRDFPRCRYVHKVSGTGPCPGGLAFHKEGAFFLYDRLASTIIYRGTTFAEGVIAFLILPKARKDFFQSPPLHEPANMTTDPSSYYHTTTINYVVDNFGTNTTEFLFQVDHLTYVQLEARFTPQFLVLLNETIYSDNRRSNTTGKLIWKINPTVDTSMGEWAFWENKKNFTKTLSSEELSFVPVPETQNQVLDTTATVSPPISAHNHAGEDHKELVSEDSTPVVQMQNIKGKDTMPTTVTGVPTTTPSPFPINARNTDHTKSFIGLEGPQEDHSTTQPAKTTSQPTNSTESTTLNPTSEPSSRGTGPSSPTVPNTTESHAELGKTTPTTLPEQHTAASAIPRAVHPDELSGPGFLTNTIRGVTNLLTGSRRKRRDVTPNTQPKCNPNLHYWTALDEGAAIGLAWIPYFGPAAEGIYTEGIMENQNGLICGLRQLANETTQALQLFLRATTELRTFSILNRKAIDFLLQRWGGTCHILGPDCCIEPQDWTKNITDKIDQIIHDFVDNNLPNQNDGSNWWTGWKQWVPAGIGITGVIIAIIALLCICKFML

In experiment [5] the target is T4, SUDV GP on rVSV particles (Sudan virus (SUDV), UniProt Q66814 33-676).
T4 sequence: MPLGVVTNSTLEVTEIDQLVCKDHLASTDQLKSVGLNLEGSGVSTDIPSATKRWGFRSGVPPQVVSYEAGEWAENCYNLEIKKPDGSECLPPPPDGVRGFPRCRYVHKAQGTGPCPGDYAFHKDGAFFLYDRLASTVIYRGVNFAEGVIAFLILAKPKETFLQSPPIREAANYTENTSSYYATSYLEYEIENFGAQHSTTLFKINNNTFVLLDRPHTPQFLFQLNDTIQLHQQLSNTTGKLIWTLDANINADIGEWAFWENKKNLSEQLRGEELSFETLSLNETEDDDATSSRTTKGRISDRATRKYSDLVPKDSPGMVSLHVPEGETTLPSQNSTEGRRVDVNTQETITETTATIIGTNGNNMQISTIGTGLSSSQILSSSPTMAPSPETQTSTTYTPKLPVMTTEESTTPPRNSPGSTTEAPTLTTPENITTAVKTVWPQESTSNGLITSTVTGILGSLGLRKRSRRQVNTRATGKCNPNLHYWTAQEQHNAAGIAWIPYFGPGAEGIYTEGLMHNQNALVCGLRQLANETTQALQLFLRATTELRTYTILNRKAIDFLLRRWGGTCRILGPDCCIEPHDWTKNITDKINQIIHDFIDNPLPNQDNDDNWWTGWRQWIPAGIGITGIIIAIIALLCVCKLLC

B1: PE-87 H100A (antibody, V domains shown)
VH: QVQLVQSGVTLVQPGGSLRVSCAASGFTFSSYAMSWVRQAPGKGLEWVSAISGLGGSTYYADSVKGRFTISRDNSKNTLYLQMNSLRAEDTAVYYCAKDARVWAAGYHFDYWGQGALVTVSS
VL: DIVLTQSPSTLSASVGDRVTITCRASQSISSWLAWYQQKPGEAPKLLISDASSLESGVPSRFSGSGSGTEFTLTISSLQPDDFATYYCQQYYSSPTFGGGTKVEIK
Take B1: the “IC50, half-maximal neutralization of viral infectivity (rVSV-GP)” value (“IC50, half-maximal neutralization” for short) in experiment [1] is 0.2 nM; in experiment [2], 0.4 nM; in experiment [3], 1 nM; in experiment [4], 0.8 nM; in experiment [5] it was 1 nM.

B2: PE-87 D99A (antibody, V domains shown)
VH: QVQLVQSGVTLVQPGGSLRVSCAASGFTFSSYAMSWVRQAPGKGLEWVSAISGLGGSTYYADSVKGRFTISRDNSKNTLYLQMNSLRAEDTAVYYCAKAHRVWAAGYHFDYWGQGALVTVSS
VL: DIVLTQSPSTLSASVGDRVTITCRASQSISSWLAWYQQKPGEAPKLLISDASSLESGVPSRFSGSGSGTEFTLTISSLQPDDFATYYCQQYYSSPTFGGGTKVEIK
As for B2, the entries for the “IC50, half-maximal neutralization” value in experiment [3] and in experiment [4] were over 500 nM and over 350 nM, respectively.

B3: PE-87 W103A (antibody, V domains shown)
VH: QVQLVQSGVTLVQPGGSLRVSCAASGFTFSSYAMSWVRQAPGKGLEWVSAISGLGGSTYYADSVKGRFTISRDNSKNTLYLQMNSLRAEDTAVYYCAKDHRVAAAGYHFDYWGQGALVTVSS
VL: DIVLTQSPSTLSASVGDRVTITCRASQSISSWLAWYQQKPGEAPKLLISDASSLESGVPSRFSGSGSGTEFTLTISSLQPDDFATYYCQQYYSSPTFGGGTKVEIK
In the case of B3, the “IC50, half-maximal neutralization” value in experiment [2] was over 200 nM; in experiment [4] it was over 150 nM.

B4: PE-87 V102A (antibody, V domains shown)
VH: QVQLVQSGVTLVQPGGSLRVSCAASGFTFSSYAMSWVRQAPGKGLEWVSAISGLGGSTYYADSVKGRFTISRDNSKNTLYLQMNSLRAEDTAVYYCAKDHRAWAAGYHFDYWGQGALVTVSS
VL: DIVLTQSPSTLSASVGDRVTITCRASQSISSWLAWYQQKPGEAPKLLISDASSLESGVPSRFSGSGSGTEFTLTISSLQPDDFATYYCQQYYSSPTFGGGTKVEIK
Take B4: the “IC50, half-maximal neutralization” value in experiment [1] turned out to be 0.2 nM; in experiment [2], 0.2 nM; in experiment [3] it was 0.6 nM; in experiment [4], 1 nM; in experiment [5], 1.1 nM.

B5: PE-87 H108A (antibody, V domains shown)
VH: QVQLVQSGVTLVQPGGSLRVSCAASGFTFSSYAMSWVRQAPGKGLEWVSAISGLGGSTYYADSVKGRFTISRDNSKNTLYLQMNSLRAEDTAVYYCAKDHRVWAAGYAFDYWGQGALVTVSS
VL: DIVLTQSPSTLSASVGDRVTITCRASQSISSWLAWYQQKPGEAPKLLISDASSLESGVPSRFSGSGSGTEFTLTISSLQPDDFATYYCQQYYSSPTFGGGTKVEIK
Take B5: the “IC50, half-maximal neutralization” value in experiment [1] was 0.5 nM; in experiment [2] it was 0.6 nM; in experiment [3], 3.2 nM; in experiment [4] it was 2.2 nM; in experiment [5], 2.1 nM.

B6: PE-87 R101A (antibody, V domains shown)
VH: QVQLVQSGVTLVQPGGSLRVSCAASGFTFSSYAMSWVRQAPGKGLEWVSAISGLGGSTYYADSVKGRFTISRDNSKNTLYLQMNSLRAEDTAVYYCAKDHAVWAAGYHFDYWGQGALVTVSS
VL: DIVLTQSPSTLSASVGDRVTITCRASQSISSWLAWYQQKPGEAPKLLISDASSLESGVPSRFSGSGSGTEFTLTISSLQPDDFATYYCQQYYSSPTFGGGTKVEIK
Turning to B6, the “IC50, half-maximal neutralization” value in experiment [1] was 0.2 nM; in experiment [2] it was 0.4 nM; in experiment [3], 3.2 nM; in experiment [4] it was 1.9 nM; in experiment [5], 1.5 nM.

B7: PE-87 Y107A (antibody, V domains shown)
VH: QVQLVQSGVTLVQPGGSLRVSCAASGFTFSSYAMSWVRQAPGKGLEWVSAISGLGGSTYYADSVKGRFTISRDNSKNTLYLQMNSLRAEDTAVYYCAKDHRVWAAGAHFDYWGQGALVTVSS
VL: DIVLTQSPSTLSASVGDRVTITCRASQSISSWLAWYQQKPGEAPKLLISDASSLESGVPSRFSGSGSGTEFTLTISSLQPDDFATYYCQQYYSSPTFGGGTKVEIK
On to B7, for which the “IC50, half-maximal neutralization” value in experiment [1] is 1.3 nM; in experiment [2] it was 0.8 nM; in experiment [3], 3 nM; in experiment [4], 0.8 nM; in experiment [5], over 350 nM.

B8: PE-87 G106A (antibody, V domains shown)
VH: QVQLVQSGVTLVQPGGSLRVSCAASGFTFSSYAMSWVRQAPGKGLEWVSAISGLGGSTYYADSVKGRFTISRDNSKNTLYLQMNSLRAEDTAVYYCAKDHRVWAAAYHFDYWGQGALVTVSS
VL: DIVLTQSPSTLSASVGDRVTITCRASQSISSWLAWYQQKPGEAPKLLISDASSLESGVPSRFSGSGSGTEFTLTISSLQPDDFATYYCQQYYSSPTFGGGTKVEIK
For the molecule B8, the “IC50, half-maximal neutralization” value in experiment [1] is 0.2 nM; in experiment [2], 0.4 nM; in experiment [3], 0.8 nM; in experiment [4], 0.8 nM; in experiment [5], 0.9 nM.
